In PMC4081096, “GtrS and GltR form a two-component system: the central role of 2-ketogluconate in the expression of exotoxin A and glucose catabolic enzymes in Pseudomonas aeruginosa” (Nucleic Acids Research, 2014) one finds K half and Kd data, which are given here for seven compounds.

The target in data set [1] is T1, GltR (Pseudomonas aeruginosa PAO1) (UniProt G3XCY6).
T1 sequence: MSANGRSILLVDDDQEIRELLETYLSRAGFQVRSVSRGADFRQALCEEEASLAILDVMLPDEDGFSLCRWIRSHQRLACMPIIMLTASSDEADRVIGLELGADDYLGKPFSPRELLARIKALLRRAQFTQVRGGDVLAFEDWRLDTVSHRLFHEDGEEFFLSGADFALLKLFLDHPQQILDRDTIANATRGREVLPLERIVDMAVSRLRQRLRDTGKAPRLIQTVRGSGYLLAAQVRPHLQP
Nature of the data set: EMSA. The following applies: EMSA: 2 nM 32P-DNA, 50 mM Tris-HCl pH 7.5, 10 mM NaCl, 0.5 M Mg acetate (so in the source), 0.1 mM EDTA, 1 mM DTT, 5% glycerol, 20 ug/ml poly(dI-dC), 200 ug/ml BSA ….

Data set [2] concerns the target T2, GtrS (Pseudomonas aeruginosa, UniProt Q9HZ47). Nature of the data set: isothermal titration calorimetry with purified recombinant GtrS-LBD. The data set is classed as binding.
Data set [3] relates to GltR (Pseudomonas aeruginosa PAO1). Kind of data set: EMSA. As to conditions: EMSA: 2 nM 32P-DNA, 50 mM Tris-HCl pH 7.5, 10 mM NaCl, 0.5 M Mg acetate (so in the source), 0.1 mM EDTA, 1 mM DTT, 5% glycerol, 20 ug/ml poly(dI-dC), 200 ug/ml BSA ….
Data set [4] has as its target T2, GtrS. Nature of the data set: isothermal titration calorimetry with purified recombinant GtrS-LBD; 2-KG also accelerates autophosphorylation of full-length GtrS in membranes. The data set is classed as binding.

T2 sequence (Q9HZ47 30-197): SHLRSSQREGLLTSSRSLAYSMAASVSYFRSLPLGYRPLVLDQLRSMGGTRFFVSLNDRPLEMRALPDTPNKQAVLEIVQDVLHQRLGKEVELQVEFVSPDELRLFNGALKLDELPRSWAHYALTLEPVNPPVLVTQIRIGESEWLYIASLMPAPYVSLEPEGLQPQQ

Compound “AGATCTTGCAGCTTTACCGAGAGCCTCAACGGCTGGCGCTGATTCTGATAGGTCGATATCCGCCGGCGCTTGGCTGGCGGCTGTCTCTCCGGCAACATCTGCCGACCGTCCCGCCCTGGCGCGGGGCATTGCGGTTCAACGACGATGAATAACGACAACAAGAGAAGCGCCGGCGGCCTCGGCCTGGTCGGCGATATCGCTGCAG (double strand) [Pglk promoter fragment]” showed a K half in data set [1] of 1000 nM. Consider `O=C(O)[C@H](O)[C@@H](O)[C@H](O)[C@H](O)COP(=O)(O)O` [6PG, 6-phosphogluconate], for which the Kd at GtrS [2] was 98 ± 33 µM.

As to PoprB promoter fragment, the K half in data set [3] turned out to be 1000 nM. Pglk promoter fragment: the K half in data set [3] amounted to 1000 nM. Take PtoxA promoter fragment: the K half in data set [3] amounted to 1000 nM. As to `O=C(O)C(=O)[C@@H](O)[C@H](O)[C@H](O)CO` [2-KG, 2-ketogluconate], the Kd on GtrS [4] came to 4.95 ± 0.8 µM.

Pedd/gap-1 promoter fragment registered a K half in data set [3] of 1000 nM.
